Measurements published in patent US6770740B1, “Crosslinked DNA condesate compositions and gene delivery methods” (The Regents of the University of Michigan, priority 1999, dated 2004).
Where no end group is shown, it is not given here. The star is where a group is joined. Carboxymethyl = O=C(O)C*

How the values were obtained:
[1] = Particle size and zeta potential of peptide DNA condensates after freeze-drying and rehydration, Example 2; assay type: physicochemical
Description: The concentration of AlkCWK18 and PEG-CWK18 were determined by UV absorbance (Trp, ε280 nm=5,600 M^−1 cm^−1). Peptide DNA condensates were prepared in 5 mM Hepes pH 5 at a peptide/DNA stoichiometry of 0.3 nmol of peptide/μg of DNA. The condensates were formed by adding 450 μL of 100 μg/mL NT-βGal drop wise to 450 μL of 30 nmol/mL AlKCWK18 or PEG-CWK18 while vortexing. Each sample was prepared in triplicate, and after a 30 min equilibration, 20-100 μL of 50 wt/vol % solutions of either glucose, mannitol, galactose, dextran or sucrose were added followed by normalization to 1 mL to give a final sugar concentration of 1-5 wt/vol % and DNA concentration of 50 μg/mL.
The mean particle size of 50 μg/mL AlkCWK18 DNA condensates were determined by quasielastic light scattering (QELS) on a Brookhaven ZetaPlus™. Samples (1 mL) were frozen rapidly in dry ice ethanol in a 1.5 mL microcentrifuge tube and then lyophilized on a Labconco™ freeze dryer for 24 h operated at a constant vacuum of 55×10^−6 mBar while maintained at room temperature (22° C.). The maximal vacuum was achieved within 2 min after applying the sample.
At the highest sucrose concentration of 5 wt/vol %, samples remained frozen throughout freeze-drying but dried to form a glassy solid after 24 h. […] Freeze-dried samples prepared in triplicate were reconstituted in 1 mL of deionized water, allowed to equilibrate for 30 min and then analyzed by QELS as described above. Large peptide DNA condensates were measured by light microscopy with magnification of 100X. The particle size of PEG-peptide DNA condensates were also measured by transmission electron microscopy (TEM) according to a published procedure (Wadhwa et al., 1997).
The relationship between pH and rehydrated peptide DNA condensate particle size was examined in 5 mM Hepes at a pH range of 3-7. The particle size of 50 μg/mL DNA condensates in 5 wt/vol % sucrose was determined by QELS before and after freeze-drying as described above.
The rehydrated particle size of AlkCWK18 or PEG-CWK18 DNA condensates were also examined at a concentration of 0.05-5 mg/mL in 5 mM Hepes pH 5 with (AlkCWK18 DNA) or without (PEG-CWK18 DNA) the addition of 5 wt/vol % sucrose. DNA condensates were freeze-dried and reconstituted to the original concentration. QELS particle size analysis before and after freeze-drying required dilution of an aliquot of the sample to concentration of 50 μg/mL. Freeze-dried 5 mg/mL PEG-CWK18 DNA condensates were also reconstituted in 0.9 wt/vol % sodium chloride and analyzed for particle size.

[2] = Solubility of peptide DNA condensates: particle size as a function of DNA concentration; assay type: physicochemical; conditions: when increasing DNA concentration from 50 to 500 μg/ml
plasmid DNA = assay: Fluorescent dye (thiazole orange) displacement assay of peptide binding to DNA, Example 1; conditions: corresponding to a charge ratio of 1.8:1
Description: Peptide DNA condensates were formed by adding 75 μg of DNA (pCMVL in 750 μl of 5 mM Hepes pH 7.4) to varying amounts of peptide (7.5 to 90 nmol in 750 μl of Hepes) while vortexing, followed by equilibration at RT for 1 h. Peptide binding to DNA was monitored by a fluorescent dye displacement assay (Wadhwa et al. 1997). A 1 μg aliquot of the peptide DNA condensate was diluted to 1 ml in Hepes containing 0.1 μM thiazole orange. The fluorescence of the intercalated dye was measured on an LS50B fluorimeter (Perkin Elmer, UK) in a microcuvette by exciting at 500 nm while monitoring emission at 530 nm.

HepG2 cells = assay: Cell binding of 125I-DNA condensates, Example 1; assay type: cell-based; conditions: 5 h transfection, 10 μg 125I-DNA condensates
Description: Iodinated plasmid DNA was prepared with specific activity of 300 nCi per μg of DNA as described previously (Teribesi et al., 1998). Prior to forming DNA condensates, the specific activity of the ^125I DNA was adjusted to 4.5 nCi per μg of DNA by combining with unlabeled plasmid. DNA condensates were prepared using AlkCWK18, PEG-SS-CWK18 or PEG-VS-CWK18 as described above. Peptide ^125I-DNA condensates (10 μg) were used to transfer HepG2 cells for 5 h according to the procedure described above. The radioactive media was removed, cells were washed with phosphate buffered saline, harvested with lysis buffer, and the cell-associated radioactivity was quantified by gamma counting.

COS 7 cells = assay: Nuclear targeted β-galactosidase (X-gal) count of transfected COS 7 cells; assay type: cell-based; conditions: COS 7, 48 h, NTβGal plasmid
Description: The number of cells transfected in vitro was examined using a plasmid encoding nuclear targeted β-galactosidase followed by X-gal (5-bromo-4-chloro-3-indolyl-β-galactopyranoside) staining. HepG2 and COS 7 cells were transfected for 5 h as described above with either AlkCWK18 DNA, peptide II DNA condensates, or plasmid DNA and then grown in fresh media for an additional 43 h. After removing media, cells were fixed for 5 min in phosphate-buffered saline (PBS, pH 7.3) containing 1.25 vol/vol % glutaraldehyde and then stained by incubation with 0.05 wt/v % X-gal, 1 mM magnesium chloride, 10 mM potassium ferricyanide, and 10 mM potassium ferrocyanide in PBS. After 4 h at 37° C., the X-gal solution was removed and the nuclear stained blue cells were counted with a light microscope under ten power magnification by averaging the number of transfectants from nine fields. Values were analyzed for significance by one-way analysis of variance.

peptide:DNA stoichiometry at the asymptote of the dye displacement titration curve (relative DNA binding affinity) (plasmid DNA) | Substance | minimum sucrose concentration to bulk DNA condensates during freeze-drying ([1]; 50 μg/ml DNA condensates) [wt/vol %] | diameter of fibrous flocculates after freeze-drying and rehydration without lyoprotectant ([1]; 50 μg/ml DNA condensates, light microscopy) | upper limit of DNA condensate concentration below which rehydrated particle size was maintained ([1]; 5 wt/vol % sucrose, 5 mM Hepes pH 5) [µg/mL] | mean particle diameter during rehydration ([1]; 5 wt/vol % sucrose, DNA concentrations up to 200 μg/mL) | zeta potential ([1]; pH 3) | particle size of DNA condensates [2] [nm] | cell associated 125I-DNA, percent of dose (HepG2 cells) | more cells positively stained vs. AlkCWK18 (COS 7 cells) [fold]
0.3 nmol per μg of DNA | Alk-S-Cys-Trp-Lys18 (C(Carboxymethyl)WKKKKKKKKKKKKKKKKKK) [AlkCWK18] | 1 | approximately 100 μm | 200 | less than 50 nm | +30 mV | 60 to 400 | Approximately 14% | 
 | Cys-Trp-Lys17-Cys (CWKKKKKKKKKKKKKKKKKC) [Peptide II] |  |  |  |  |  |  |  | 4
